From patent US20200024330A1 come the findings set out here.

What all share (experiment): cell-based or functional assay
Experiment [1] deals with HIV-1 MGRM-C-028 Env (on pseudovirus) (HIV-1).
The target in experiment [2] is HIV-1 92UG024 Env (on pseudovirus) (HIV-1).
Experiment [3] addresses HIV-1 APV6 Env (on pseudovirus) (HIV-1).
Experiment [4] concerns the target HIV-1 92TH021 Env (on pseudovirus) (HIV-1).
The target in experiment [5] is HIV-1 93UG077 Env (on pseudovirus) (HIV-1).
For experiment [6], the target named is HIV-1 APV13 Env (on pseudovirus) (HIV-1).
Experiment [7] addresses HIV-1 MGRM-AG-005 Env (on pseudovirus) (HIV-1).
In experiment [8] the target is aMLV envelope protein (on pseudovirus, negative control) (aMLV).
For experiment [9], the target named is HIV-1 NL43 Env (on pseudovirus) (HIV-1).
Experiment [10] concerns the target HIV-1 JRFL Env (on pseudovirus) (HIV-1).
Experiment [11] addresses HIV-1 JRCSF Env (on pseudovirus) (HIV-1) (UniProt P20871).
Experiment [12] concerns the target HIV-1 MGRM-C-027 Env (on pseudovirus) (HIV-1).
Experiment [13] concerns the target HIV-1 94UG103 Env (on pseudovirus) (HIV-1).
The target in experiment [14] is panel of HIV-1 pseudoviruses of Table 52.
Experiment [15] deals with HIV-1 MGRM-D-001 Env (on pseudovirus) (HIV-1).
Experiment [16] deals with HIV-1 MGRM-D-018 Env (on pseudovirus) (HIV-1).
The target in experiment [17] is HIV-1 MGRM-A-010 Env (on pseudovirus) (HIV-1).
Experiment [18] addresses HIV-1 93IN905 Env (on pseudovirus) (HIV-1).
The target of experiment [19] is HIV-1 MGRM-C-026 Env (on pseudovirus) (HIV-1).
For experiment [20], the target named is HIV-1 APV17 Env (on pseudovirus) (HIV-1).
In experiment [21] the target is HIV-1 92UG005 Env (on pseudovirus) (HIV-1).
Experiment [22] concerns the target HIV-1 CMU02 Env (on pseudovirus) (HIV-1).

A value given as a limit tells only on which side of the number the result lay.

B1: PGT-135 (5343_B08; 5344_E16) (antibody, V domains shown)
VH: QLQMQESGPGLVKPSETLSLSCTVSGDSIRGGEWGDKDYHWGWVRHSAGKGLEWIGSIHWRGTTHYKESLRRRVSMSIDTSRNWFSLRLASVTAADTAVYFCARHRHHDVFMLVPIAGWFDVWGPGVQVTVSS
VL: EIVMTQSPDTLSVSPGETVTLSCRASQNINKNLAWYQYKPGQSPRLVIFETYSKIAAFPARFVASGSGTEFTLTINNMQSEDVAVYYCQQYEEWPRTFGQGTKVDIK
For B1, the IC50 (ug/ml), pseudovirus neutralization in experiment [1] was 2.16 µg/mL; in experiment [2], 0.0139 µg/mL; in experiment [3] it was greater than 10 µg/mL; in experiment [4] it was greater than 10 µg/mL; in experiment [5], greater than 10 µg/mL; in [6], 0.545 µg/mL. The IC50 (ug/ml), pseudovirus neutralization was greater than 10 µg/mL in [7]; greater than 10 µg/mL in [8]; 6.79 µg/mL in experiment [9]; greater than 10 µg/mL in [10]; 0.113 µg/mL in experiment [11]; greater than 10 µg/mL in experiment [12]. Also, the IC50 (ug/ml), pseudovirus neutralization in [13] was greater than 10 µg/mL; in [15], greater than 10 µg/mL; in experiment [16] it was 0.0433 µg/mL; in experiment [17], greater than 10 µg/mL; in experiment [18] it was 0.0183 µg/mL; in experiment [19], 0.0123 µg/mL. Moreover, the IC50 (ug/ml), pseudovirus neutralization in experiment [20], in experiment [21] and in experiment [22] was greater than 10 µg/mL in each case. Moreover, the % neutralized (viruses of the panel) in experiment [14] came to 54%. The median IC50 (ug/ml), pseudovirus neutralization in experiment [14] came to 0.11 µg/mL.

B2: PGT-136 (5329_C19; 5366_P21) (antibody, V domains shown)
VH: QLQLQESGPGLVKPSETLSLTCTVSGGSMRGTDWGENDFHYGWIRQSSAKGLEWIGSIHWRGRTTHYKTSFRSRATLSIDTSNNRFSLTFSFVTAADTAVYYCARHKYHDIFRVVPVAGWFDPWGQGLLVTVSS
VL: EIVMTQSPPTLSVSPGETATLSCRASQNVKNNLAWYQLKPGQAPRLLIFDASSRAGGIPDRFSGSGYGTDFTLTVNSVQSEDFGDYFCQQYEEWPRTFGQGTKVDIK
As to B2, the IC50 (ug/ml), pseudovirus neutralization was greater than 10 µg/mL in experiment [1]; 0.0915 µg/mL in experiment [2]; greater than 10 µg/mL in [3]; greater than 10 µg/mL in [4]; greater than 10 µg/mL in [5]; greater than 10 µg/mL in experiment [6]. For the same molecule, the IC50 (ug/ml), pseudovirus neutralization in [7], in [8], in [9], in [10], in [11] and in experiment [12] was greater than 10 µg/mL in each case. Besides, the IC50 (ug/ml), pseudovirus neutralization in experiment [13] is greater than 10 µg/mL; in [15], greater than 10 µg/mL; in experiment [16], greater than 10 µg/mL; in experiment [17], greater than 10 µg/mL; in [18], 0.0135 µg/mL; in experiment [19] it was 0.0065 µg/mL. Besides, the IC50 (ug/ml), pseudovirus neutralization in experiment [20], in experiment [21] and in experiment [22] was greater than 10 µg/mL in each case. The molecule further gave a % neutralized (viruses of the panel) in experiment [14] of 18%. Moreover, the median IC50 (ug/ml), pseudovirus neutralization in [14] is 0.05 µg/mL.
